Experimental data taken from article PMC7367873, “Dissecting the sequence determinants for dephosphorylation by the catalytic subunits of phosphatases PP1 and PP2A” (Nature Communications, 2020).

B1: BAG2 (protein, UniProt O95816 2-211, looked up)
BAG family molecular …: AQAKINAKANEGRFCRSSSMADRSSRLLESLDQLELRVEALREAATAVEQEKEILLEMIHSIQNSQDMRQISDGEREELNLTANRLMGRTLTVEVSVETIRNPQQQESLKHATRIIDEVVNKFLDDLGNAKSHLMSLYSACSSEVPHGPVDQKFQSIVIGCALEDQKKIKRRLETLLRNIENSDKAIKLLEHSKGAGSKTLQQNAESRFN
B2: WBP11 (protein, UniProt Q9Y2W2 1-641, looked up)
WW domain-binding protein 11: MGRRSTSSTKSGKFMNPTDQARKEARKRELKKNKKQRMMVRAAVLKMKDPKQIIRDMEKLDEMEFNPVQQPQLNEKVLKDKRKKLRETFERILRLYEKENPDIYKELRKLEVEYEQKRAQLSQYFDAVKNAQHVEVESIPLPDMPHAPSNILIQDIPLPGAQPPSILKKTSAYGPPTRAVSILPLLGHGVPRLPPGRKPPGPPPGPPPPQVVQMYGRKVGFALDLPPRRRDEDMLYSPELAQRGHDDDVSSTSEDDGYPEDMDQDKHDDSTDDSDTDKSDGESDGDEFVHRDNGERDNNEEKKSGLSVRFADMPGKSRKKKKNMKELTPLQAMMLRMAGQEIPEEGREVEEFSEDDDEDDSDDSEAEKQSQKQHKEESHSDGTSTASSQQQAPPQSVPPSQIQAPPMPGPPPLGPPPAPPLRPPGPPTGLPPGPPPGAPPFLRPPGMPGLRGPLPRLLPPGPPPGRPPGPPPGPPPGLPPGPPPRGPPPRLPPPAPPGIPPPRPGMMRPPLVPPLGPAPPGLFPPAPLPNPGVLSAPPNLIQRPKADDTSAATIEKKATATISAKPQITNPKAEITRFVPTALRVRRENKGATAAPQRKSEDDSAVPLAKAAPKSGPSVPVSVQTKDDVYEAFMKEMEGLL
B3: HLTF (protein, UniProt Q14527 1-1009, looked up)
Helicase-like transcription …: MSWMFKRDPVWKYLQTVQYGVHGNFPRLSYPTFFPRFEFQDVIPPDDFLTSDEEVDSVLFGSLRGHVVGLRYYTGVVNNNEMVALQRDPNNPYDKNAIKVNNVNGNQVGHLKKELAGALAYIMDNKLAQIEGVVPFGANNAFTMPLHMTFWGKEENRKAVSDQLKKHGFKLGPAPKTLGFNLESGWGSGRAGPSYSMPVHAAVQMTTEQLKTEFDKLFEDLKEDDKTHEMEPAEAIETPLLPHQKQALAWMVSRENSKELPPFWEQRNDLYYNTITNFSEKDRPENVHGGILADDMGLGKTLTAIAVILTNFHDGRPLPIERVKKNLLKKEYNVNDDSMKLGGNNTSEKADGLSKDASRCSEQPSISDIKEKSKFRMSELSSSRPKRRKTAVQYIESSDSEEIETSELPQKMKGKLKNVQSETKGRAKAGSSKVIEDVAFACALTSSVPTTKKKMLKKGACAVEGSKKTDVEERPRTTLIICPLSVLSNWIDQFGQHIKSDVHLNFYVYYGPDRIREPALLSKQDIVLTTYNILTHDYGTKGDSPLHSIRWLRVILDEGHAIRNPNAQQTKAVLDLESERRWVLTGTPIQNSLKDLWSLLSFLKLKPFIDREWWHRTIQRPVTMGDEGGLRRLQSLIKNITLRRTKTSKIKGKPVLELPERKVFIQHITLSDEERKIYQSVKNEGRATIGRYFNEGTVLAHYADVLGLLLRLRQICCHTYLLTNAVSSNGPSGNDTPEELRKKLIRKMKLILSSGSDEECAICLDSLTVPVITHCAHVFCKPCICQVIQNEQPHAKCPLCRNDIHEDNLLECPPEELARDSEKKSDMEWTSSSKINALMHALTDLRKKNPNIKSLVVSQFTTFLSLIEIPLKASGFVFTRLDGSMAQKKRVESIQCFQNTEAGSPTIMLLSLKAGGVGLNLSAASRVFLMDPAWNPAAEDQCFDRCHRLGQKQEVIITKFIVKDSVEENMLKIQNKKRELAAGAFGTKKPNADEMKQAKINEIRTLIDL
B4: ERC1 (protein, UniProt Q8IUD2 1-1116, looked up)
ELKS/Rab6-interacting/CAST …: MYGSARSVGKVEPSSQSPGRSPRLPRSPRLGHRRTNSTGGSSGSSVGGGSGKTLSMENIQSLNAAYATSGPMYLSDHENVGSETPKSTMTLGRSGGRLPYGVRMTAMGSSPNIASSGVASDTIAFGEHHLPPVSMASTVPHSLRQARDNTIMDLQTQLKEVLRENDLLRKDVEVKESKLSSSMNSIKTFWSPELKKERALRKDEASKITIWKEQYRVVQEENQHMQMTIQALQDELRIQRDLNQLFQQDSSSRTGEPCVAELTEENFQRLHAEHERQAKELFLLRKTLEEMELRIETQKQTLNARDESIKKLLEMLQSKGLSAKATEEDHERTRRLAEAEMHVHHLESLLEQKEKENSMLREEMHRRFENAPDSAKTKALQTVIEMKDSKISSMERGLRDLEEEIQMLKSNGALSTEEREEEMKQMEVYRSHSKFMKNKVEQLKEELSSKEAQWEELKKKAAGLQAEIGQVKQELSRKDTELLALQTKLETLTNQFSDSKQHIEVLKESLTAKEQRAAILQTEVDALRLRLEEKETMLNKKTKQIQDMAEEKGTQAGEIHDLKDMLDVKERKVNVLQKKIENLQEQLRDKEKQMSSLKERVKSLQADTTNTDTALTTLEEALAEKERTIERLKEQRDRDEREKQEEIDNYKKDLKDLKEKVSLLQGDLSEKEASLLDLKEHASSLASSGLKKDSRLKTLEIALEQKKEECLKMESQLKKAHEAALEARASPEMSDRIQHLEREITRYKDESSKAQAEVDRLLEILKEVENEKNDKDKKIAELERQVKDQNKKVANLKHKEQVEKKKSAQMLEEARRREDNLNDSSQQLQDSLRKKDDRIEELEEALRESVQITAEREMVLAQEESARTNAEKQVEELLMAMEKVKQELESMKAKLSSTQQSLAEKETHLTNLRAERRKHLEEVLEMKQEALLAAISEKDANIALLELSSSKKKTQEEVAALKREKDRLVQQLKQQTQNRMKLMADNYEDDHFKSSHSNQTNHKPSPDQIIQPLLELDQNRSKLKLYIGHLTTLCHDRDPLILRGLTPPASYNLDDDQAAWENELQKMTRGQLQDELEKGERDNAELQEFANAILQQIADHCPDILEQVVNALEESS
B5: NFX1 (protein, UniProt Q12986 1-1120, looked up)
Transcriptional repressor …: MAEAPPVSGTFKFNTDAAEFIPQEKKNSGLNCGTQRRLDSNRIGRRNYSSPPPCHLSRQVPYDEISAVHQHSYHPSGSKPKSQQTSFQSSPCNKSPKSHGLQNQPWQKLRNEKHHIRVKKAQSLAEQTSDTAGLESSTRSESGTDLREHSPSESEKEVVGADPRGAKPKKATQFVYSYGRGPKVKGKLKCEWSNRTTPKPEDAGPESTKPVGVFHPDSSEASSRKGVLDGYGARRNEQRRYPQKRPPWEVEGARPRPGRNPPKQEGHRHTNAGHRNNMGPIPKDDLNERPAKSTCDSENLAVINKSSRRVDQEKCTVRRQDPQVVSPFSRGKQNHVLKNVETHTGSLIEQLTTEKYECMVCCELVRVTAPVWSCQSCYHVFHLNCIKKWARSPASQADGQSGWRCPACQNVSAHVPNTYTCFCGKVKNPEWSRNEIPHSCGEVCRKKQPGQDCPHSCNLLCHPGPCPPCPAFMTKTCECGRTRHTVRCGQAVSVHCSNPCENILNCGQHQCAELCHGGQCQPCQIILNQVCYCGSTSRDVLCGTDVGKSDGFGDFSCLKICGKDLKCGNHTCSQVCHPQPCQQCPRLPQLVRCCPCGQTPLSQLLELGSSSRKTCMDPVPSCGKVCGKPLPCGSLDFIHTCEKLCHEGDCGPCSRTSVISCRCSFRTKELPCTSLKSEDATFMCDKRCNKKRLCGRHKCNEICCVDKEHKCPLICGRKLRCGLHRCEEPCHRGNCQTCWQASFDELTCHCGASVIYPPVPCGTRPPECTQTCARVHECDHPVYHSCHSEEKCPPCTFLTQKWCMGKHEFRSNIPCHLVDISCGLPCSATLPCGMHKCQRLCHKGECLVDEPCKQPCTTPRADCGHPCMAPCHTSSPCPVTACKAKVELQCECGRRKEMVICSEASSTYQRIAAISMASKITDMQLGGSVEISKLITKKEVHQARLECDEECSALERKKRLAEAFHISEDSDPFNIRSSGSKFSDSLKEDARKDLKFVSDVEKEMETLVEAVNKGKNSKKSHSFPPMNRDHRRIIHDLAQVYGLESVSYDSEPKRNVVVTAIRGKSVCPPTTLTGVLEREMQARPPPPIPHHRHQSDKNPGSSNLQKITKEPIIDYFDVQD
B6: BSG (protein, UniProt P35613 22-385, looked up)
Basigin: AAGFVQAPLSQQRWVGGSVELHCEAVGSPVPEIQWWFEGQGPNDTCSQLWDGARLDRVHIHATYHQHAASTISIDTLVEEDTGTYECRASNDPDRNHLTRAPRVKWVRAQAVVLVLEPGTVFTTVEDLGSKILLTCSLNDSATEVTGHRWLKGGVVLKEDALPGQKTEFKVDSDDQWGEYSCVFLPEPMGTANIQLHGPPRVKAVKSSEHINEGETAMLVCKSESVPPVTDWAWYKITDSEDKALMNGSESRFFVSSSQGRSELHIENLNMEADPGQYRCNGTSSKGSDQAIITLRVRSHLAALWPFLGIVAEVLVLVTIIFIYEKRRKPEDVLDDDDAGSAPLKSSGQHQNDKGKNVRQRNSS
B7: FLOT1 (protein, UniProt O75955 1-427, looked up)
Flotillin-1: MFFTCGPNEAMVVSGFCRSPPVMVAGGRVFVLPCIQQIQRISLNTLTLNVKSEKVYTRHGVPISVTGIAQVKIQGQNKEMLAAACQMFLGKTEAEIAHIALETLEGHQRAIMAHMTVEEIYKDRQKFSEQVFKVASSDLVNMGISVVSYTLKDIHDDQDYLHSLGKARTAQVQKDARIGEAEAKRDAGIREAKAKQEKVSAQYLSEIEMAKAQRDYELKKAAYDIEVNTRRAQADLAYQLQVAKTKQQIEEQRVQVQVVERAQQVAVQEQEIARREKELEARVRKPAEAERYKLERLAEAEKSQLIMQAEAEAASVRMRGEAEAFAIGARARAEAEQMAKKAEAFQLYQEAAQLDMLLEKLPQVAEEISGPLTSANKITLVSSGSGTMGAAKVTGEVLDILTRLPESVERLTGVSISQVNHKPLRTA
B8: SRP14 (protein, UniProt P37108 2-136, looked up)
Signal recognition particle …: VLLESEQFLTELTRLFQKCRTSGSVYITLKKYDGRTKPIPKKGTVEGFEPADNKCLLRATDGKKKISTVVSSKEVNKFQMAYSNLLRANMDGLKKRDKKNKTKKTKAAAAAAAAAPAAAATAPTTAATTAATAAQ

System: GFP-14-3-3β
Assay: GFP-14-3-3β co-IP with LC-MS/MS, untreated GFP-14-3-3β versus GFP control (14-3-3 interactome)
Assay type: binding, human
Details: log2 difference; pairwise comparison untreated vs GFP, label-free quantification, 3 replicates each

Row | Molecule | Difference (log2), untreated vs GFP
1 | B1 | -1.564

Same assay, conditions: untreated vs GFP; LFQ intensities; 3 replicates each

Row | Molecule | Difference (log2), untreated vs GFP
2 | B2 | 1.895 log2
3 | B3 | 1.079 log2
4 | B4 | 2.543 log2
5 | B5 | 0.9482 log2
6 | B6 | 0.07198 log2
7 | B7 | -0.5076 log2
8 | B8 | 1.473 log2

System: GFP-14-3-3β and its binding proteins
Assay: GFP-14-3-3β co-IP with LC-MS/MS label-free quantification, untreated versus PP1c-treated
Set-up: species or system human
Details: PP1 vs untreated; LFQ intensities; 3 replicates each

Row | Molecule | Difference (log2), PP1 vs untreated
9 | B2 | 0.3509 log2
10 | B3 | 0.3278 log2
11 | B4 | 0.3326 log2
12 | B5 | 0.3965 log2
13 | B6 | 0.3522 log2
14 | B7 | 0.376 log2
15 | B8 | 0.3437 log2

Same assay, conditions: log2 difference; pairwise comparison PP1 vs untreated, label-free quantification, 3 replicates each

Row | Molecule | Difference (log2), PP1 vs untreated
16 | B1 | 2.1096
